Assay results published in publication PMC9482650, “Quantitative fragmentomics allow affinity mapping of interactomes” (Nature Communications, 2022).

T1: DLG3_3, Q92796
T1 sequence (Q92796 374-475, limits assumed, looked up): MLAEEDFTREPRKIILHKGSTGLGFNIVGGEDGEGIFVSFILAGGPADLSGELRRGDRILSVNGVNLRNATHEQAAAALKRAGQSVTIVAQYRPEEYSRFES

T2: ARHGEF11, O15085
T2 sequence (O15085 42-136, limits assumed, looked up): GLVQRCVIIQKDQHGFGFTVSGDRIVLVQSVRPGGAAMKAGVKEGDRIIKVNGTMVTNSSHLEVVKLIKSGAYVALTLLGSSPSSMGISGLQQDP

T3: APBA2_2, Q99767
T3 sequence (Q99767 654-744, limits assumed, looked up): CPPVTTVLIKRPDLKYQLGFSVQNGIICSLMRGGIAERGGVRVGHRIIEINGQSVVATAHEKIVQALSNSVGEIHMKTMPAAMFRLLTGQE

T4: SNTB1, Q13884
T4 sequence (Q13884 107-205, limits assumed, looked up): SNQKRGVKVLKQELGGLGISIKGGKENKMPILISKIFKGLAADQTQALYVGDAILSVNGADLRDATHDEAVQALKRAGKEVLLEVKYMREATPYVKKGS

T5: MPP2, Q14168
T5 sequence (Q14168 180-250, limits assumed, looked up): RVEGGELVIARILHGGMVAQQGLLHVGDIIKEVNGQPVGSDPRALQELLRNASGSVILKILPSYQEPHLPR

T6: LNX2_3, Q8N448
T6 sequence (Q8N448 463-564, limits assumed, looked up): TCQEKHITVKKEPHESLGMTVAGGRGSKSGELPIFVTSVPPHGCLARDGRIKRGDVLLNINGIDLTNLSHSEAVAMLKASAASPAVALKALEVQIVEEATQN

T7: NHERF3_4, Q5T2W1
T7 sequence (Q5T2W1 373-468, limits assumed, looked up): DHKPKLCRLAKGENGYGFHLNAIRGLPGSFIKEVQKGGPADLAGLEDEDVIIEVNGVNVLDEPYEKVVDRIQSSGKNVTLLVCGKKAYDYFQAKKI

T8: GRIP1_2, Q9Y3R0
T8 sequence (Q9Y3R0 145-248, limits assumed, looked up): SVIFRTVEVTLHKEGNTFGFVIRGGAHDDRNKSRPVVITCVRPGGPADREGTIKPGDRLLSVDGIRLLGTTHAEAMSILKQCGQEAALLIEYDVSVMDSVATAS

T9: GRIP1_3, Q9Y3R0
T9 sequence (Q9Y3R0 247-346, limits assumed, looked up): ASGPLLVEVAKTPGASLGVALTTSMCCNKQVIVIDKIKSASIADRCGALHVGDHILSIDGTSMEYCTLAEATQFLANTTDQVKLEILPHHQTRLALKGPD

T10: MPP6, Q9NZW5
T10 sequence (Q9NZW5 125-219, limits assumed, looked up): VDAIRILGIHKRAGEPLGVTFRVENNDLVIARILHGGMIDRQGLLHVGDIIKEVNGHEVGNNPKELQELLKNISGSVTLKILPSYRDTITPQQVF

T11: GRIP1_7, Q9Y3R0
T11 sequence (Q9Y3R0 999-1096, limits assumed, looked up): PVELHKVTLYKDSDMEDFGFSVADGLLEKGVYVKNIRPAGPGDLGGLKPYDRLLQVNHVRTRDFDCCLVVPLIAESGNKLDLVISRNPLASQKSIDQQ

T12: DFNB31_1, Q9P202
T12 sequence (Q9P202 135-233, limits assumed, looked up): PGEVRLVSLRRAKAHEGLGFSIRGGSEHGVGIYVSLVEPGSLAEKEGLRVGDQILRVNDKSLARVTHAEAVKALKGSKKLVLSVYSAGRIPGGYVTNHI

T13: APBA2_1, Q99767
T13 sequence (Q99767 563-664, limits assumed, looked up): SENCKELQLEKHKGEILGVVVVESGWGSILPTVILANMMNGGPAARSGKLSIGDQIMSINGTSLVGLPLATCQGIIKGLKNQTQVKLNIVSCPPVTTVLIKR

B1: CNTNAP2, Q9UHC6 (peptide)
chain: IDESKKEWLI
B2: NF2, P35240;P35240-1 (peptide)
chain: KSRVAFFEEL
B3: MUC3A, MUC3B, Q02505;Q9H195 (peptide)
chain: KRPEMTSSSV

Biological target: NOS1, P29475
Experiment: holdup assay
Parameters: key: below the threshold = too weak to quantify, mostly under pKd 3.1 to 4
Settings: plain residues with an end cap or a label only (N-terminal biotin on a linker: ado-ado)

Chain of NOS1, P29475 (P29475 9-101): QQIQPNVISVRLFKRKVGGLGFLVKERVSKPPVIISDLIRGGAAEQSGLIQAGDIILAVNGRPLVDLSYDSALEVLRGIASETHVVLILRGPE

pKd	Binder
4.21	B1

Biological target: GRID2IP_1, A4D2P6
Experiment: holdup assay
Parameters: key: below the threshold = too weak to quantify, mostly under pKd 3.1 to 4
Settings: plain residues with an end cap or a label only (N-terminal biotin on a linker: ado-ado)

Chain of GRID2IP_1, A4D2P6 (A4D2P6 1-87): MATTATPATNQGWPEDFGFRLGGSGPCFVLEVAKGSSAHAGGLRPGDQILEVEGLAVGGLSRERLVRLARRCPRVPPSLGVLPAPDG

pKd	Binder
below the threshold	B2
below the threshold	B1
below the threshold	B3

Biological target: DLG1_3, Q12959
Experiment: holdup assay
Parameters: key: below the threshold = too weak to quantify, mostly under pKd 3.1 to 4
Settings: plain residues with an end cap or a label only (N-terminal biotin on a linker: ado-ado)

Chain of DLG1_3, Q12959 (Q12959 457-571): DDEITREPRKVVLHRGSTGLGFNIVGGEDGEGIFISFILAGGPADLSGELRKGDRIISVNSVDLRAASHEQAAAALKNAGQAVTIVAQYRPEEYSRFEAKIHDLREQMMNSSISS

pKd	Binder
below the threshold	B1
below the threshold	B3

Biological target: IL16_4, Q14005
Experiment: holdup assay
Parameters: key: below the threshold = too weak to quantify, mostly under pKd 3.1 to 4
Settings: plain residues with an end cap or a label only (N-terminal biotin on a linker: ado-ado)

Chain of IL16_4, Q14005 (Q14005 1229-1329): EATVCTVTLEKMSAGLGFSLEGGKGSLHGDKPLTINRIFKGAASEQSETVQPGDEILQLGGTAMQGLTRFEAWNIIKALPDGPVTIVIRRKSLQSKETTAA

pKd	Binder
3.79	B1
1.87	B3

Biological target: T1, DLG3_3, Q92796
Experiment: holdup assay
Parameters: key: below the threshold = too weak to quantify, mostly under pKd 3.1 to 4
Settings: plain residues with an end cap or a label only (N-terminal biotin on a linker: ado-ado)

pKd	Binder
below the threshold	B2
below the threshold	B1
1.84	B3

Biological target: DLG4_1, P78352
Experiment: holdup assay
Parameters: key: below the threshold = too weak to quantify, mostly under pKd 3.1 to 4
Settings: plain residues with an end cap or a label only (N-terminal biotin on a linker: ado-ado)

Chain of DLG4_1, P78352 (P78352 62-152): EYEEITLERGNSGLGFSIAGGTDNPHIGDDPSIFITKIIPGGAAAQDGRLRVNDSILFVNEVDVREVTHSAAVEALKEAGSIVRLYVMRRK

pKd	Binder
below the threshold	B1
below the threshold	B3

Biological target: T2, ARHGEF11, O15085
Experiment: holdup assay
Parameters: key: below the threshold = too weak to quantify, mostly under pKd 3.1 to 4
Settings: plain residues with an end cap or a label only (N-terminal biotin on a linker: ado-ado)

pKd	Binder
4.32	B2
below the threshold	B1
3.74	B3

Biological target: GORASP2, Q9H8Y8
Experiment: holdup assay
Parameters: key: below the threshold = too weak to quantify, mostly under pKd 3.1 to 4
Settings: plain residues with an end cap or a label only (N-terminal biotin on a linker: ado-ado)

pKd	Binder
3.94	B1
below the threshold	B3

Biological target: CASK, O14936
Experiment: holdup assay
Parameters: key: below the threshold = too weak to quantify, mostly under pKd 3.1 to 4
Settings: plain residues with an end cap or a label only (N-terminal biotin on a linker: ado-ado)

Chain of CASK, O14936 (O14936 487-570): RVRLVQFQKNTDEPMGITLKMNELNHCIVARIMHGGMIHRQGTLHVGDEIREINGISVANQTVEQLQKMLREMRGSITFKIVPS

pKd	Binder
below the threshold	B2
below the threshold	B1

Biological target: TJP1_3, Q07157
Experiment: holdup assay
Parameters: key: below the threshold = too weak to quantify, mostly under pKd 3.1 to 4
Settings: plain residues with an end cap or a label only (N-terminal biotin on a linker: ado-ado)

Chain of TJP1_3, Q07157 (Q07157 416-512): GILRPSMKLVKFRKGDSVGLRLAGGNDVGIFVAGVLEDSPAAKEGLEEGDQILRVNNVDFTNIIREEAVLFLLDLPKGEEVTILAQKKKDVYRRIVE

pKd	Binder
below the threshold	B2
below the threshold	B1
below the threshold	B3

Biological target: T3, APBA2_2, Q99767
Experiment: holdup assay
Parameters: key: below the threshold = too weak to quantify, mostly under pKd 3.1 to 4
Settings: plain residues with an end cap or a label only (N-terminal biotin on a linker: ado-ado)

pKd	Binder
below the threshold	B2
below the threshold	B1
below the threshold	B3

Biological target: T4, SNTB1, Q13884
Experiment: holdup assay
Parameters: key: below the threshold = too weak to quantify, mostly under pKd 3.1 to 4
Settings: plain residues with an end cap or a label only (N-terminal biotin on a linker: ado-ado)

pKd	Binder
below the threshold	B1

Biological target: T5, MPP2, Q14168
Experiment: holdup assay
Parameters: key: below the threshold = too weak to quantify, mostly under pKd 3.1 to 4
Settings: plain residues with an end cap or a label only (N-terminal biotin on a linker: ado-ado)

pKd	Binder
below the threshold	B2
4.78	B1
below the threshold	B3

Biological target: T6, LNX2_3, Q8N448
Experiment: holdup assay
Parameters: key: below the threshold = too weak to quantify, mostly under pKd 3.1 to 4
Settings: plain residues with an end cap or a label only (N-terminal biotin on a linker: ado-ado)

pKd	Binder
below the threshold	B2
below the threshold	B1
below the threshold	B3

Biological target: LNX1_3, Q8TBB1
Experiment: holdup assay
Parameters: key: below the threshold = too weak to quantify, mostly under pKd 3.1 to 4
Settings: plain residues with an end cap or a label only (N-terminal biotin on a linker: ado-ado)

Chain of LNX1_3, Q8TBB1 (Q8TBB1 500-596): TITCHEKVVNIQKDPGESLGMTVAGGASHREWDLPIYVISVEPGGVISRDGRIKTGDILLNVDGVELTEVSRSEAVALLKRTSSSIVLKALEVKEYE

pKd	Binder
below the threshold	B1
below the threshold	B3

Biological target: T7, NHERF3_4, Q5T2W1
Experiment: holdup assay
Parameters: key: below the threshold = too weak to quantify, mostly under pKd 3.1 to 4
Settings: plain residues with an end cap or a label only (N-terminal biotin on a linker: ado-ado)

pKd	Binder
below the threshold	B1

Biological target: MAST2, Q6P0Q8
Experiment: holdup assay
Parameters: key: below the threshold = too weak to quantify, mostly under pKd 3.1 to 4
Settings: plain residues with an end cap or a label only (N-terminal biotin on a linker: ado-ado)

Chain of MAST2, Q6P0Q8 (Q6P0Q8 1099-1202): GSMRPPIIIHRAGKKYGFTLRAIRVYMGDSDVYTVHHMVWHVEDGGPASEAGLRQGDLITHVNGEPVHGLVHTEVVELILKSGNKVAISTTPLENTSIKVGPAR

pKd	Binder
4.97	B2
below the threshold	B1
4.77	B3

Biological target: GIPC2, Q8TF65
Experiment: holdup assay
Parameters: key: below the threshold = too weak to quantify, mostly under pKd 3.1 to 4
Settings: plain residues with an end cap or a label only (N-terminal biotin on a linker: ado-ado)

Chain of GIPC2, Q8TF65 (Q8TF65 112-203): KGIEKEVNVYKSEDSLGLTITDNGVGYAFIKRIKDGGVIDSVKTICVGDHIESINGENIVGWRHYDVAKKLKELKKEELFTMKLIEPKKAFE

pKd	Binder
below the threshold	B1
3.73	B3

Biological target: T8, GRIP1_2, Q9Y3R0
Experiment: holdup assay
Parameters: key: below the threshold = too weak to quantify, mostly under pKd 3.1 to 4
Settings: plain residues with an end cap or a label only (N-terminal biotin on a linker: ado-ado)

pKd	Binder
below the threshold	B2
below the threshold	B1
below the threshold	B3

Biological target: T9, GRIP1_3, Q9Y3R0
Experiment: holdup assay
Parameters: key: below the threshold = too weak to quantify, mostly under pKd 3.1 to 4
Settings: plain residues with an end cap or a label only (N-terminal biotin on a linker: ado-ado)

pKd	Binder
below the threshold	B2
below the threshold	B1
below the threshold	B3

Biological target: T10, MPP6, Q9NZW5
Experiment: holdup assay
Parameters: key: below the threshold = too weak to quantify, mostly under pKd 3.1 to 4
Settings: plain residues with an end cap or a label only (N-terminal biotin on a linker: ado-ado)

pKd	Binder
below the threshold	B2
4.54	B1
below the threshold	B3

Biological target: T11, GRIP1_7, Q9Y3R0
Experiment: holdup assay
Parameters: key: below the threshold = too weak to quantify, mostly under pKd 3.1 to 4
Settings: plain residues with an end cap or a label only (N-terminal biotin on a linker: ado-ado)

pKd	Binder
below the threshold	B1
below the threshold	B3

Biological target: T12, DFNB31_1, Q9P202
Experiment: holdup assay
Parameters: key: below the threshold = too weak to quantify, mostly under pKd 3.1 to 4
Settings: plain residues with an end cap or a label only (N-terminal biotin on a linker: ado-ado)

pKd	Binder
below the threshold	B1

Biological target: T13, APBA2_1, Q99767
Experiment: holdup assay
Parameters: key: below the threshold = too weak to quantify, mostly under pKd 3.1 to 4
Settings: plain residues with an end cap or a label only (N-terminal biotin on a linker: ado-ado)

pKd	Binder
below the threshold	B1
below the threshold	B3
